From patent publication US8835609B2, “Antigen binding sites to non-functional oligomeric P2X7 receptors and methods of use thereof” (Biosceptre International Limited, priority 2009, dated 2014) come the findings set out here.

The test system of assay [1] is 4T1 mouse breast tumour cells. The experiment in a line: 4T1 syngeneic xenograft model, lung metastases. Format: in vivo. Set-up: number of lung metastases, % of control / average metastasis volume, % of control / reduction of total metastasis volume / total metastasis volume, % of control: concentration or dose not given beside the values. Conditions: Day 14. As to the method:
Reagents for culture of 4T1 mouse breast tumour cells were obtained from the following suppliers: RPMI 1640 cell culture medium, FCS, Glutamax, HBSS and penicillin-streptomycin from Invitrogen Australia (Mt Waverley, VIC, Australia); and Trypan Blue from Sigma-Aldrich (Castle Hill, NSW, Australia). Matrigel™ was obtained from BD Biosciences (North Ryde, NSW, Australia).
Tumour cells (Passage 2 from working stock) were cultured in RPMI 1640 cell culture medium, supplemented with 10% FCS, 1% Glutamax and 1% penicillin-streptomycin. The cells were harvested by trypsinisation, washed twice in HBSS and counted. The cells were then resuspended in HBSS:Matriger™ (1:1, v/v) to a final concentration of 5×10^7 cells/mL.
(§1) Dosing occurred every 3 days at antibody concentrations of 1 or 10 mg/kg i.v. or with PBS for treatment control or Sorafenib at 5 mL/kg daily as a positive control in the Lewis Lung model. Mice were randomised into equal groups of 10 mice, based on tumour volume on Day 0 of the studies.
(§2) Mice were anaesthetised for blood collection and euthanised by exsanguination via terminal cardiac bleed 48 hours post-final dose, on Days 11 or 14 post-initial treatment.
(§3) The lungs were excised from all mice. Lung surface metastases were counted and were categorised according to size: small (<1 mm), medium (≧1 mm and <3 mm) and large (≧3 mm). Excised lungs were preserved in 10% neutral buffered formalin.

The test system of the next assay is Lewis Lung (LL) tumour. The experiment in a line: Lewis Lung (LL) syngeneic xenograft model, lung metastases. Format: in vivo, mouse. Conditions: Day 11. On the procedure:
as §1, §2, §3
The syngeneic Lewis Lung model was used with additional control groups. Besides the PBS control group of ten mice (Group 1), a positive control group using daily Sorafenib at 5 mL/kg was included (Group 5) along with antibody treatment groups consisting of sheep affinity purified E200-300 polyclonal antibody at 10 mg/kg (Group 2), 2F6-hIgG1 at 1 mg/kg (Group 3) and 2F6-hIgG1 at 10 mg/kg (Group 4).

Assay [2] deals with T1, red blood cells expressing function-capable P2X7 receptor (Mus musculus, UniProt Q9Z1M0).
T1 construct: from tissue; host or cells: red blood cells in formalin-fixed Lewis Lung tumour sections from antibody-treated mice
T1 sequence (Q9Z1M0 1-595): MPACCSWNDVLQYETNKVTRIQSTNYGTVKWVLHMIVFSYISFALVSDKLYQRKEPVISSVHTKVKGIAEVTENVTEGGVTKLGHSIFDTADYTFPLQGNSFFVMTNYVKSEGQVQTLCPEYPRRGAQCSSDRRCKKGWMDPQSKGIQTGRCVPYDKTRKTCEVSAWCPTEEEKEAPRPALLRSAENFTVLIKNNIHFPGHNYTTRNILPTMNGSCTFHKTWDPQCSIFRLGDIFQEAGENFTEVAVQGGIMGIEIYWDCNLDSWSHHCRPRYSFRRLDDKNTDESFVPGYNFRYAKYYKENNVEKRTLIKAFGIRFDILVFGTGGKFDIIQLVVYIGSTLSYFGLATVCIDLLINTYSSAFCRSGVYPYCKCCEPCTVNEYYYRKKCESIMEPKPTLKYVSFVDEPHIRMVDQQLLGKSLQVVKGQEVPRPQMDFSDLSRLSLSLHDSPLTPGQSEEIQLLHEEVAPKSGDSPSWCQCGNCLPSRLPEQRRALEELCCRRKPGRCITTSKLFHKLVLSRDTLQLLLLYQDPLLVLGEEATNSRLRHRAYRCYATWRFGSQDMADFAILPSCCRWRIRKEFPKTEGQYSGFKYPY
The assay is described as follows: Binding to red blood cells in tumour sections. It counts as in vivo. Conditions: adjacent red blood cells in Lewis Lung tumour section. On the procedure: Female BALB/c mice inoculated with the orthotopic syngeneic 4T1 murine mammary tumours in their third mammary fat pads or NOD/SCID female mice inoculated with the orthotopic human Hep3b xenograft tumour in their livers were treated intravenously with either a human domain antibody (2-2-1 hFc) directed at a monomeric target (epitope E200 on P2X7) or 2F6-hIgG1 directed at the compound epitope E200-300. All procedures approved by the Animal Ethics Committee at The University of Adelaide (M46-2008). Antibody penetration into the tumours was measured using Jackson Immunosearch goat anti-human antibody on tumour sections that were removed from the mice two days post antibody treatment. The tumours were fixed in 10% neutral buffered formalin for 48 hours, embedded in paraffin, sectioned to 5 um, deparaffinized, and stained for human antibody. The Biocare Mach 4 secondary detection system was used, comprising a specific goat antibody probe followed by a polymer with HRP then stained with DAB.

B1: 2F6 hIgG1: mouse scFv from 2F6 grafted into a human format of type IgG1, expressed in HEK293 cells (antibody, V domains shown)
VH: DVKLVESGGGLVKLGGSLKLSCAASGFTFSSYYMSWVRQTPEKRLELVAAINSNGGSTYYPDTVKGRFTISRDNAKNTLYLQMSSLKSEDTAFYYCTRHYSSRFFDVWGAGTTVTVSS
VL: MADIVMTQSQKFMSTSVGDRVSVTCKASQNVGTNVAWYQQKPGQSPKALIYSASFRYSGVPDRFTGSGSGTDFTLTISNVQSEDLAEFFCQQYNSYPFTFGSGTRLEIK
Consider B1, for which, in assay [1] (BALBc mice, i.v. every 3 days), the “number of lung metastases” value came to 3.4±0.7. Further, in assay [1], the average metastasis volume worked out at 1.28 mm^3; the “average metastasis volume, % of control” value is 22%; the “number of lung metastases, % of control” value was found to be 53%; the total metastasis volume was 43 mm^3. The “total metastasis volume, % of control” value in assay [1] is listed as 11.8%. Also, the “reduction of total metastasis volume” value in assay [1] (listed as 2F6-hIgG1) is on record as 88%. In assay [1] (listed as 2F6hIgG1), the “reduction of total metastasis volume” value turned out to be 89%. The “Mean Lung Surface Mets” value with Lewis Lung (LL) tumour (antibody 1 mg/kg i.v. every 3 days) is 0.9. The “Mean Lung Surface Mets” value in the assay with Lewis Lung (LL) tumour (antibody 10 mg/kg i.v. every 3 days) is given as 0.2. In the assay with Lewis Lung (LL) tumour (antibody 10 mg/kg), the “inhibition of lung metastases relative to PBS control” value was found to be 96%. The “labelling of red blood cells” value in assay [2] is given as “entirely unlabelled”.
